Experimental data from US20130017550.

GST-PKC-θ, Q04759, sequence (Q04759 whole entry, looked up): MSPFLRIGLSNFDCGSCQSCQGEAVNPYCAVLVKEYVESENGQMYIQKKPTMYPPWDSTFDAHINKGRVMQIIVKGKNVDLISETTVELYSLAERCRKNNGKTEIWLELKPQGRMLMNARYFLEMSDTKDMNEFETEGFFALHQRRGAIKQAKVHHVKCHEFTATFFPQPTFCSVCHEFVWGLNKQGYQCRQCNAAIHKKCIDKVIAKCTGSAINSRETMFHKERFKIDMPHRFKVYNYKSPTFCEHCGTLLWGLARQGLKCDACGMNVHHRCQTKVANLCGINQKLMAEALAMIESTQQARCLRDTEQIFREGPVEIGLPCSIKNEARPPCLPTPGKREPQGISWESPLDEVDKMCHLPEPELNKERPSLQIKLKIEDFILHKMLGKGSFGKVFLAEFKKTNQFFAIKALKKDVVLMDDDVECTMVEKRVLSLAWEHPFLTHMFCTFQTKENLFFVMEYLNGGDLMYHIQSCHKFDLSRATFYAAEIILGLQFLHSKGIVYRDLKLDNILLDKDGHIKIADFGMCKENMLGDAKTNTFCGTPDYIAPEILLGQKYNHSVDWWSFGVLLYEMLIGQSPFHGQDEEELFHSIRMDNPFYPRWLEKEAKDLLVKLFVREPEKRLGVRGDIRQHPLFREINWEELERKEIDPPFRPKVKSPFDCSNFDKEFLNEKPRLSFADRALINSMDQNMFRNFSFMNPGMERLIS

B1: Flag-GLK (protein)
chain: MAQEDFELIQRIGSGTYGDVYKARNVNTGELAAIKVIKLEPGEDFAVVQQEIIMMKDCKHPNIVAYFGSYLRRDKLWICMEFCGGGSLQDIYHVTGPLSELQIAYVSRETLQGLYYLHSKGKMHRDIKGANILLTDNGHVKLADFGVSAQITATIAKRKSFIGTPYWMAPEVAAVERKGGYNQLCDLWAVGITAIELAELQPPMFDLHPMRALFLMTKSNFQPPKLKDKMKWSNSFHHFVKMALTKNPKKRPTAEKLLQHPFVTQHLTRSLAIELLDKVNNPDHSTYHDFDDDDPEPLVAVPHRIHSTSRNVREEKTRSEITFGQVKFDPPLRKETEPHHELPDSDGFLDSSEEIYYTARSNLDLQLEYGQGHQGGYFLGADKSLLKSVEEELHQRGHVAHLEDDEGDDDESKHSTLKAKIPPPLPPKPKSIFIPQEMHSTEDENQGTIKRCPMSGSPAKPSQVPPRPPPPRLPPHKPVALGNGMSSFQLNGERDGSLCQQQNEHRGTNLSRKEKKDVPKPISNGLPPTPKVHMGACFSKVFNGCPLKIHCASSWINPDTRDQYLIFGAEEGIYTLNLNELHETSMEQLFPRRCTWLYVMNNCLLSISGKASQLYSHNLPGLFDYARQMQKLPVAIPAHKLPDRILPRKFSVSAKIPETKWCQKCCVVRNPYTGHKYLCGALQTSIVLLEWVEPMQKFMLIKHIDFPIPCPLRMFEMLVVPEQEYPLVCVGVSRGRDFNQVVRFETVNPNSTSSWFTESDTPQTNVTHVTQLERDTILVCLDCCIKIVNLQGRLKSSRKLSSELTFDFQIESIVCLQDSVLAFWKHGMQGRSFRSNEVTQEISDSTRIFRLLGSDRVVVLESRPTDNPTANSNLYILAGHENSY
- PKC-θ-T538 phosphorylation in in vitro kinase assays using purified proteins (immunoblot) (GST-PKC-θ, Q04759): PKC-θ-T538 was directly phosphorylated by GLK
- PKC-θ phosphorylation in in vitro kinase assays (immunoblot) (Myc-PKC-θ): GLK phosphorylated PKC-θ at T538, but not at S676 or S695
